Patent US20220298229A1 (ICHOR BIOLOGICS, published 2022)

Columns and labels:
[1] = target: T1, ANDV glycoprotein (GPC), glycoproteins Gn and Gc of hantavirus strain Chile-9717869 (Andes Virus (hantavirus strain …, UniProt Q9E006 19-1138)); experiment: cell-based or functional assay
T1 sequence: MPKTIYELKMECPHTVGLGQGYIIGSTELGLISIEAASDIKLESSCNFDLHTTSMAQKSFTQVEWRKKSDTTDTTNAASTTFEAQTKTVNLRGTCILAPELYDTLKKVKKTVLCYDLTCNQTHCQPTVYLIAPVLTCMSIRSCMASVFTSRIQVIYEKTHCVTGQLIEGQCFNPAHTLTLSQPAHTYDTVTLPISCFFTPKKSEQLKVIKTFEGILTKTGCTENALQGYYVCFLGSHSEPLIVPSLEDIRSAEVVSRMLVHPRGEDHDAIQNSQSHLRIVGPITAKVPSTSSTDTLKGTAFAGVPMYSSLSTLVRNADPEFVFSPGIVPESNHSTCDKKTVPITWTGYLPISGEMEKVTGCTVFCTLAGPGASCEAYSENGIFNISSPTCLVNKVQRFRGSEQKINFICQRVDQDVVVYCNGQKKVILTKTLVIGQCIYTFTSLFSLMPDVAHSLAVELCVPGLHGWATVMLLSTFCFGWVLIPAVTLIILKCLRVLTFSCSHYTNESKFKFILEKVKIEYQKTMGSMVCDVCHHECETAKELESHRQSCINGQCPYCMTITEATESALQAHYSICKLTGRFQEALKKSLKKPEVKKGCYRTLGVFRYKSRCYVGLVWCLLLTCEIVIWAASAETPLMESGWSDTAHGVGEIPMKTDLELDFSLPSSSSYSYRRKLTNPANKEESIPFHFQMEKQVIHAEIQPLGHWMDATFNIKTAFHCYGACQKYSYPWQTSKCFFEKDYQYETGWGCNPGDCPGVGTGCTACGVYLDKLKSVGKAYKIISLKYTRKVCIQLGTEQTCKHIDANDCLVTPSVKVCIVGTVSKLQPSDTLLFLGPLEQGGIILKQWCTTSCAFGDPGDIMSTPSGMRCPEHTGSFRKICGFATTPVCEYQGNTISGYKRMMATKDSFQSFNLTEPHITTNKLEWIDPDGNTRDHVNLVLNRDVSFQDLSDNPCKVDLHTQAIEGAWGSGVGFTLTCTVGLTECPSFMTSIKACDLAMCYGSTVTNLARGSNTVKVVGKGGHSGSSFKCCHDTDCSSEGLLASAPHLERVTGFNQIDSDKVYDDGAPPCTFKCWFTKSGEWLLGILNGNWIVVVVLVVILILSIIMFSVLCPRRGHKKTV

[2] = target: T1, ANDV glycoprotein (GPC), glycoproteins …

B1: monoclonal antibody MIB22 (antibody, V domains shown)
VH: EVQLVQSGAELKKPGSSVKVSCKASGGTFVGYGVSWVRQVPGHGPEWMGGFSPISNTANYAERFQGRVTMIVDGSTSTAYMELRSLRSEDTAIYYCARSCDFWNAYYNNWFDPWGQGTLVTVSS
VL: AQSALTQPASVSGSPGQSITISCTGTSSDFADYNSVSWYQQHPGKAPKLLIFDVNDRPSGVSHRFSGSKSGNTASLTISGLQAEDESDYYCTSYTICNSYVFGTGTKVTVLG
notes: also called MIB22 IgG; first antibody
[1]
  neutralization capacity relative to JL16: 31 fold
  potency of ANDV neutralization relative to polyclonal IgG from P10: 67 fold
[2]
  EC50: 3.38 µg/mL
